We go through 15 molecules from article PMC8299219 (Cell, 2021).

In the assay the target is SARS-CoV-2 S ectodomain trimer, prefusion-stabilized, 2P variant (Wrapp et al., 2020) (SARS-CoV-2, Wuhan-Hu-1, UniProt P0DTC2, stabilised).

B1: C83A4 (antibody, V domains shown)
VH: QVQLQESGPGLVKPSQTLSLTCTVSGGSISSGGYYWSWIRQHPGKGLEWIGYIYYSGSTYYNPSLKSRVTISVDTSKNQFSLKLTSVTAADTAVYYCASEPTFRQSSISWYHYGMDVWGQGTTVTVSS
VL: QSALTQPASVSGSPGQSITISCTGTSSDVGRYNYVSWYQQHPGKAPKLMIYDVSNRPSGVSNRFSGSKSGNTASLTISGLQAEDEADYYCSSYTSSSTLVFGTGTKVTVL
On to B1, for which the binding result was “binds”.

B2: C163D5 (antibody, V domains shown)
VH: EVQLVESGGGLVQPGGSLRLSCAASGFTFSSYWMHWVRQAPGKGLVWVSRTNSDGSSTNYADSVKGRFTISRDNAKNTLYLQMNSLRAEDTAVYYCARPQFYVWGSDRADYGMDVWGQGTTVTVSS
VL: QSALTQPASVSGSPGQSITISCTGTSSDVGGYNSVSWYQQHPGKAPKLMIYEVSNRPSGVSNRFSGSKSGNTASLTISGLQAEDEADYYCSSYRSSSTLVFGGGTKLTVL
Take B2: the binding result is “binds”.

B3: C12E6 (antibody, V domains shown)
VH: QVQLQESGSGLVKPSQTLSLTCAVSGGSISSGGYSWSWIRQPPGKGLEWIGYIYHSGSTYYNPSLKSRVTISVDRSKNQFSLKLSSVTAADTAVYYCARSGFLEWLRRVDAFDIWGQGTMVTVSS
VL: QSALTQPASVSGSPGQSITISCTGTSSDVGGYNYVSWYQQHPGKAPKLMIYDVSNRPSGVSNRFSASKSGNTASLTISGLQAEDEADYYCSSYTSSSTRVFGGGTKLTVL
As to B3, the binding result is recorded as “binds”.

B4: C83A5 (antibody, V domains shown)
VH: QVQLVESGGGVVQPGRSLRLSCAASRFTFSSYGMHWVRQAPGKGLEWVAVIWFDGTNKYYADSVKGRFTISRDNSKNTLYLQMNSLRVEDTAVYYCARDGAYYDRSAYYYRLKFYFDFWGQGTLVTVSS
VL: SYELTQPPSVSVSPGQTARITCSGDALPNQYVYWYHQKPGQAPVLVIYKDSERPSGIPERFSGSSSGTTVTLTISGVQAEDEADYYCQSADSSGNIGVFGGGTKLTVL
As for B4, the binding result is listed as “binds”.

B5: C53E12 (antibody, V domains shown)
VH: QVQLVESGGGVVQPGRSLRLSCAASGFTFSSYGMHWVRQAPGKGLEWVAVISYDGSNKYYVDSVKGRFTISRDNSKNTLYLQMNSLRAEDTAVYYCAKGTEIVVVPADYFDYWGQGTLVTVSS
VL: EIVLTQSPATLSLSPGERATLSCRASQSVSSYLAWYQQKPGQAPRLVIYDASNRATGIPARFSGSGSGTDFTLTISSLEPEDFAVYYCQQRSNWPGFTFGPGTKVDIK
As to B5, the binding result is “binds”.

B6: C12B8 (antibody, V domains shown)
VH: QVQLVESGGGVVQPGRSLGLSCAASGFTFSSYAMHWVRQAPGKGLEWVAVISYDGSNKADSVKGRFTISRDNSNNTLYLQMNSLRAEDTAVYYCAREGVVVTAPLDYWGQGTLVTVSS
VL: not shown
Turning to B6, the binding result is on record as “binds”.

B7: C15C12 (antibody, V domains shown)
VH: EVQLLESGGGLVQPGGSLRLSCAASAFTFTNYDMNWVRQAPGKGLEWVSTISGSGDITYYADFVKGRFTISRDNSKNTLNLQMNSLRADDTAVYYCAKDFARRGYNGYEEKFISMFGGVIADYGMDVWGQGTTVTVSS
VL: EIVLTQSPTTLSLSPGERVTLSCRASQSISSYLAWYQQKPGQAPRLLIYRASNRATGISARFSGSGSGTDFTLTISSLEPEDFAVYYCQQRSNWPLTFGGGTKVEIK
With B7, the binding result is given as “binds”.

B8: C89A5 (antibody, V domains shown)
VH: QVQLVESGGGVVQPGRSLRLPCAASGFSFSGYAMHWVRQAPDKGLEWMAVISFDGSTKTYADSVRGRFTISRDNSKNTLYLQIHTLRTEDTAVYYCARGGGGGDGAFDNWGGGTMVTVSS
VL: DVVMTQSPLSLPVTLGQPASISCRSSQSLVYSDGNTYLIWFQQRPGQSPRRLIYKVSNRDSGVPDRFSGSGSGTDFTLKISRVEADDVGVYYCMQTTHWPYTFGQGTKLEIK
For the molecule B8, the binding result was “binds”.

B9: C53F12 (antibody, V domains shown)
VH: QVQLVQSGAEVKKPGSSVKVSCKASGGTFSSYAISWVRQAPGQGLEWMGGIIPIFGTANYAQKFQGRVTITADESTSTAYMELSSLRSEDTAVYYCARMYYYVSGSYHYFDYWGQGTLVTVSS
VL: EIVLTQSPATLSLSPGERATLSCRASQSVSSYLAWYQQKPGQAPRLLIYDASNRATGIPARFSGSGSGTDFTLTISSLEPEDFAVYYCQQRSNWPPALTFGGGTKVEIK
Consider B9, for which the binding result is on record as “binds”.

B10: C102B1 (antibody, V domains shown)
VH: QVQLVQSGAEVKKPGSSVKVSCKASGGTFSSYAISWVRQAPGQGLEWMGGIIPIFGTANYAQKFQGRVTITADESTSTAYMELSSLRSEDTAVYCCARDRGYCTGGVCSNYYYGIDVWGQGTTVTVSS
VL: EIVLTQSPATLSLSPGERATLSCRASQSVSSYLAWYQQKPGQAPRLLIYDASNRATGIPARFSGSGSGTDFTLTISSLEPEDFAVYYCQQRSNWPPSYTFGQGTKLEIK
Take B10: the binding result is “binds”.

B11: C15E7 (antibody, V domains shown)
VH: QVQLQQWGAGLLKPSETLSRTCAVYGGSFSGYYWTWIRQPPGMALEWIGDINHGGVTNYNPSLKSRVTISVDTSKNQFSLRLTSVTAADTAVYYCARRLLGDPRPASSSLSLRRVSYMDVWDKGTTVTVSS
VL: DIQMTQSPSSMPASVGDRVTITCRASQSISNYLNWYQQEPGRAPKLLIYGASSLQSGVPSRFGGSGSGTEFTLTITALQPEDSATYYCQQIHGAPPITFGQGTRLEIK
For B11, the binding result is “binds”.

B12: C7A2 (antibody, V domains shown)
VH: EVQLLESGGGLVQPGGSLRLSCAASGFIFSNYVVSWVRQAPGKGLEWVSGISVNGDTTFYADSVKGRFTISRDNSKNTLYLQMNSLRAEDTAVYYCAKVRGYCSGGRGCMDVWGQGTTVTVSS
VL: DIQLTQSPSSLSASVGDRVTITCQASQDIGNTLAWYQQKPGKAPNLLIYDASSLQSGVPSRFSGSVSGTDFTLTITSLQLEDFATYYCQQFNTYPALTFGGGTKVEIK
Turning to B12, the binding result is given as “binds”.

B13: C18C8 (antibody, V domains shown)
VH: EVQLVESGGGLVQPGRSLRLSCTTSGFTFGDYAMSWVRQAPGKGLEWVGFIRSKAYGGTTEYAASVKGRFTISRDDSKSIAYLQMNSLKTEDTAVYCCTRGLKVEPYYFDYWGQGTLVTVSS
VL: not shown
In the case of B13, the binding result was “binds”.

B14: G32Q6 (antibody, V domains shown)
VH: EVQLLESGGGLVQPGGSLRLSCAASGFTFSNYAMNWVRQAPGKGLEWVSGISGNGVNTFYADSVKGRFTISRDNSRNTLYLQMNSLRAEDTAVYYCAKAIQTYSNYVLGADYWGQGTLVTVSS
VL: QSALTQPRSVSGSPGQSVTISCTGTNSDVGNYNFVSWYQQHPGRAPKLMIYDVSKRPSGVPDRFSGSKSDNTASLTISGLQAEDQADYYCCSYATSYTFRVVFGGGTKLTVL
Consider B14, for which the binding result is “binds”.

B15: C93D10 (antibody, V domains shown)
VH: QVQLVQSGAEVKKPGASVKVSCKASGYTFTSYYMHWVRQAPGQGLEWMGIINPSGGSTSYAQKFQGRVTMTRDTSTSTVYMELSSLRSEDTAVYYCARDPSSDYDFWSGWGNQYYYYGMDVWGQGTTVTVSS
VL: DIQLTQSPSFLSASVGDRVTITCRASQGISSYLAWYQQKPGKAPKLLIYAASTLQSGVPSRFSGSGSGTEFTLTISSLQPEDFATYYCQQLNSYPFTFGPGTKVDIK
Turning to B15, the binding result is listed as “binds”.
